The values that follow come from article PMC4844972, “A dynamic interaction process between KaiA and KaiC is critical to the cyanobacterial circadian oscillator” (Scientific Reports, 2016).

What is called Kd is a measure of binding affinity in units of concentration.

B1: wild-type KaiA of Synechococcus elongatus PCC 7942 (natural protein)
chain: MLSQIAICIWVESTAILQDCQRALSADRYQLQVCESGEMLLEYAQTHRDQIDCLILVAANPSFRAVVQQLCFEGVVVPAIVVGDRDSEDPDEPAKEQLYHSAELHLGIHQLEQLPYQVDAALAEFLRLAPVETMADHIMLMGANHDPELSSQQRDLAQRLQERLGYLGVYYKRDPDRFLRNLPAYESQKLHQAMQTSYREIVLSYFSPNSNLNQSIDNFVNMAFFADVPVTKVVEIHMELMDEFAKKLRVEGRSEDILLDYRLTLIDVIAHLCEMYRRSIPRET
notes: KaiA, Synechococcus elongatus PCC 7942; expressed from pGEX-6P-1; Plasmid provided by Dr. Carl Johnson; also called the wild-type KaiA
B2: KaiA-3-1 (natural protein, Synechococcus elongatus PCC 7942)
chain: MLSQIAICIWVESTAILQDCQRALSADRYQLQVCESGEMLLEYAQTHRDQIDCLILVAANPSFRAVVQQLCFEGVVVPAIVVGDRDSEDPDEPAKEQLYHSAELHLGIHQLEQLPYQVDAALAEFLRLAPVETMADHIMLMGANHDPELSSQQRDLAQRLQERLGYLGVYYKRDPDRFLRNLPAYESQKLHQAMQTSYREIVLSYFSPNSNLNQSIDNFVNMAFFADVPVTKVVEIHMELMDEFAKKLRVEGHKEDFLLDYRLTLIDVIAHLCEMYRRSIPRET
notes: KaiA, Synechococcus elongatus PCC 7942, with the mutations of Cluster III; The oligomer state is said to be the same as that of the wild type; also called KaiA mutant of Cluster III
B3: KaiA-1-1 (natural protein, Synechococcus elongatus PCC 7942)
chain: MLSQIAICIWVESTAILQDCQRALSADRYQLQVCESGEMLLEYAQTHRDQIDCLILVAANPSFRAVVQQLCFEGVVVPAIVVGDRDSEDPDEPAKEQLYHSAELHLGIHQLEQLPYQVDAALAEFLRLAPVETMADHIMLMGANHDPELSSQQRDLAQRLQERLGYLGVYYKRDPDRFLRNLPAYESQKLHQAMQTSYREIVLSYFSPNSNLNQSIDNFVNMAFFADVPVTKVVEIHMNLMDEFWKKLRVEGRSEDILLDYRLTLIDVIAHLCEMYRRSIPRET
notes: KaiA, Synechococcus elongatus PCC 7942, with the mutations of Cluster I; R249 belongs to the cluster but was not mutated; The oligomer state is said to be the same as that of the wild type; also called KaiA mutant of Cluster I
B4: KaiA-2-1 (natural protein, Synechococcus elongatus PCC 7942)
chain: MLSQIAICIWVESTAILQDCQRALSADRYQLQVCESGEMLLEYAQTHRDQIDCLILVAANPSFRAVVQQLCFEGVVVPAIVVGDRDSEDPDEPAKEQLYHSAELHLGIHQLEQLPYQVDAALAEFLRLAPVETMADHIMLMGANHDPELSSQQRDLAQRLQERLGYLGVYYKRDPDRFLRNLPAYESQKLHQAMQTSYREIVLSYFSPNSNLNQSIDNFVNMAFFADVPVTKVVEIHMELMDEFAKKLRVEGRSEDILQDYRLTLIDVIAHLCEMYRRSIPRET
notes: KaiA, Synechococcus elongatus PCC 7942, with the mutation of Cluster II; The oligomer state is said to be the same as that of the wild type; also called KaiA mutant of Cluster II
B5: wild-type KaiC of Synechococcus elongatus PCC 7942 (enzyme)
chain: MTSAEMTSPNNNSEHQAIAKMRTMIEGFDDISHGGLPIGRSTLVSGTSGTGKTLFSIQFLYNGIIEFDEPGVFVTFEETPQDIIKNARSFGWDLAKLVDEGKLFILDASPDPEGQEVVGGFDLSALIERINYAIQKYRARRVSIDSVTSVFQQYDASSVVRRELFRLVARLKQIGATTVMTTERIEEYGPIARYGVEEFVSDNVVILRNVLEGERRRRTLEILKLRGTSHMKGEYPFTITDHGINIFPLGAMRLTQRSSNVRVSSGVVRLDEMCGGGFFKDSIILATGATGTGKTLLVSRFVENACANKERAILFAYEESRAQLLRNAYSWGMDFEEMERQNLLKIVCAYPESAGLEDHLQIIKSEINDFKPARIAIDSLSALARGVSNNAFRQFVIGVTGYAKQEEITGLFTNTSDQFMGAHSITDSHISTITDTIILLQYVEIRGEMSRAINVFKMRGSWHDKAIREFMISDKGPDIKDSFRNFERIISGSPTRITVDEKSELSRIVRGVQEKGPES
notes: KaiC, Synechococcus elongatus PCC 7942; expressed from pGEX-6P-1; The sample is a mixture of phosphorylated and de-phosphorylated KaiC (sites T432 and S431); also called the wild-type KaiC
B6: KaiC-1-1 (enzyme, Synechococcus elongatus PCC 7942)
chain: MTSAEMTSPNNNSEHQAIAKMRTMIEGFDDISHGGLPIGRSTLVSGTSGTGKTLFSIQFLYNGIIEFDEPGVFVTFEETPQDIIKNARSFGWDLAKLVDEGKLFILDASPDPEGQEVVGGFDLSALIERINYAIQKYRARRVSIDSVTSVFQQYDASSVVRRELFRLVARLKQIGATTVMTTERIEEYGPIARYGVEEFVSDNVVILRNVLEGERRRRTLEILKLRGTSHMKGEYPFTITDHGINIFPLGAMRLTQRSSNVRVSSGVVRLDEMCGGGFFKDSIILATGATGTGKTLLVSRFVENACANKERAILFAYEESRAQLLRNAYSWGMDFEEMERQNLLKIVCAYPESAGLEDHLQIIKSEINDFKPARIAIDSLSALARGVSNNAFRQFVIGVTGYAKQEEITGLFTNTSDQFMGAHSITDSHISTITDTIILLQYVEIRGEMSRAINVFKMRGSWHDKAIREFMISDKGPDIKDSFRNFERIISGSPTRITVDERSELSRIVRGVQEKGPES
notes: KaiC, Synechococcus elongatus PCC 7942, with the mutation of Cluster I; The oligomer state is said to be the same as that of the wild type; also called KaiC mutant of Cluster I
B7: KaiC-2-1 (enzyme, Synechococcus elongatus PCC 7942)
chain: MTSAEMTSPNNNSEHQAIAKMRTMIEGFDDISHGGLPIGRSTLVSGTSGTGKTLFSIQFLYNGIIEFDEPGVFVTFEETPQDIIKNARSFGWDLAKLVDEGKLFILDASPDPEGQEVVGGFDLSALIERINYAIQKYRARRVSIDSVTSVFQQYDASSVVRRELFRLVARLKQIGATTVMTTERIEEYGPIARYGVEEFVSDNVVILRNVLEGERRRRTLEILKLRGTSHMKGEYPFTITDHGINIFPLGAMRLTQRSSNVRVSSGVVRLDEMCGGGFFKDSIILATGATGTGKTLLVSRFVENACANKERAILFAYEESRAQLLRNAYSWGMDFEEMERQNLLKIVCAYPESAGLEDHLQIIKSEINDFKPARIAIDSLSALARGVSNNAFRQFVIGVTGYAKQEEITGLFTNTSDQFMGAHSITDSHISTITDTIILLQYVEIRGEMSRAINVFKMRGSWHDKAIREFMISDKGPDIKDSFRNFERIISGSPTRVTTDEKTELSRIVRGVQEKGPES
notes: KaiC, Synechococcus elongatus PCC 7942, with the mutations of Cluster II; The oligomer state is said to be the same as that of the wild type; also called KaiC mutant of Cluster II
B8: KaiC-3-1 (enzyme, Synechococcus elongatus PCC 7942)
chain: MTSAEMTSPNNNSEHQAIAKMRTMIEGFDDISHGGLPIGRSTLVSGTSGTGKTLFSIQFLYNGIIEFDEPGVFVTFEETPQDIIKNARSFGWDLAKLVDEGKLFILDASPDPEGQEVVGGFDLSALIERINYAIQKYRARRVSIDSVTSVFQQYDASSVVRRELFRLVARLKQIGATTVMTTERIEEYGPIARYGVEEFVSDNVVILRNVLEGERRRRTLEILKLRGTSHMKGEYPFTITDHGINIFPLGAMRLTQRSSNVRVSSGVVRLDEMCGGGFFKDSIILATGATGTGKTLLVSRFVENACANKERAILFAYEESRAQLLRNAYSWGMDFEEMERQNLLKIVCAYPESAGLEDHLQIIKSEINDFKPARIAIDSLSALARGVSNNAFRQFVIGVTGYAKQEEITGLFTNTSDQFMGAHSITDSHISTITDTIILLQYVEIRGEMSRAINVFKMRGSWHDKAIREFMISDKGPDIKDSFRNFERIISGVPHRITVDEKSELSRIVRGVQEKGPES
notes: KaiC, Synechococcus elongatus PCC 7942, with the mutations of Cluster III; The oligomer state is said to be the same as that of the wild type; also called KaiC mutant of Cluster III

The first series concerns the target KaiC (Synechococcus elongatus) (UniProt Q79PF4).
Assay: not given
The note with it: cited from earlier work.
As to KaiA (from UniProt Q79PF6), the Kd is 2.5 µM.

Another series concerns the molecule itself. Description: native gel or EMSA; 8% native gel of the purified proteins, to analyse their oligomerization statuses.
Details: not given
Take B1: the binding result is “binds”.
Still for that read-out and setting: to B2 belongs “binds”.
The same measure, in the same setting: next, B3: “binds”.
Same read-out and setting: next, B4: “binds”.
For the molecule B5, the binding result is recorded as “binds”.
On the same count and under the same terms, next, B6: “binds”.
Same read-out and setting: next, B7: “binds”; B8: “binds”.
